Laboratory results as given in US12024555 (VANDERBILT UNIVERSITY, dated 2024).

T1: West Nile virus E protein T64Q variant on RVPs (West Nile virus (WNV1 NY99 strain), UniProt Q9Q6P4 291-791, T64Q)
T1 sequence (looked up): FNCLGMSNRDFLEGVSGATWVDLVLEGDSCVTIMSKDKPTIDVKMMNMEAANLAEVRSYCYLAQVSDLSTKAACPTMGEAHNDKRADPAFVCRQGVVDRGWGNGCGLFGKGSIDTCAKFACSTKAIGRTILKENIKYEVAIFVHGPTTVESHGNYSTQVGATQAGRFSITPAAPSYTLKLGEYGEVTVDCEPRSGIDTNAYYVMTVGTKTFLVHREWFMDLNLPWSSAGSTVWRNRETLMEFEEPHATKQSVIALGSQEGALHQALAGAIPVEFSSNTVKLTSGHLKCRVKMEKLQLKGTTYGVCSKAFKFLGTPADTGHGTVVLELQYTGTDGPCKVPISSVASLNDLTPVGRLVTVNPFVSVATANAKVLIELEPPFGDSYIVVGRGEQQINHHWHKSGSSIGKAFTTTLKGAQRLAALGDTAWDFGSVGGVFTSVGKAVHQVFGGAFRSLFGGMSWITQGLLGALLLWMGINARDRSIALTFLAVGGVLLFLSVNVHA

T2: West Nile virus E protein T208K variant on RVPs (West Nile virus (WNV1 NY99 strain), UniProt Q9Q6P4 291-791, T208K)
T2 sequence (looked up): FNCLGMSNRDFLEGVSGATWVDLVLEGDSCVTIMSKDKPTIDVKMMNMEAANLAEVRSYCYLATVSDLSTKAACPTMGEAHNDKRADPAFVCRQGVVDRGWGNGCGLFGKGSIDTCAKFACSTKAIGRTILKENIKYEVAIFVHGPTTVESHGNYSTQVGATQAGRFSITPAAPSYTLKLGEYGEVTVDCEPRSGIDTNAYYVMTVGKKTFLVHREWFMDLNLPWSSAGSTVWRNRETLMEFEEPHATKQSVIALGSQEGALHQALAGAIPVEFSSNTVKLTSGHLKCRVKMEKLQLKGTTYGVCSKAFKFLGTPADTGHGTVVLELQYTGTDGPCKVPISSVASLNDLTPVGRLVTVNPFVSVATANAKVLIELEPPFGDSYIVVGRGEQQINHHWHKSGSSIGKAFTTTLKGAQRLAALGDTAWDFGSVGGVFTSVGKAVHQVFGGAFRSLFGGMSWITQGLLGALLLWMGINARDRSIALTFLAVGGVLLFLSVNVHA

T3: recombinant WNV E protein containing only DIII (West Nile virus, UniProt Q9Q6P4 586-694)
T3 construct: domain: DIII
T3 sequence: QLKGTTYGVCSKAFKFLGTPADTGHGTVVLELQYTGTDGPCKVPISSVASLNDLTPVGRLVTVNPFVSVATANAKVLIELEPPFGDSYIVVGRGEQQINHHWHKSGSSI


Tests used:
[1] = molecular target: T1, West Nile virus E protein T64Q variant …; experiment: cell-based or functional assay
[2] = molecular target: T2, West Nile virus E protein T208K variant …; experiment: cell-based or functional assay
[3] = molecular target: T3, recombinant WNV E protein containing …; experiment: ELISA on plate-coated recombinant DIII

| Binder | fold increase in neutralization IC50 relative to WT RVPs [1] [fold] | fold increase in neutralization IC50 relative to WT RVPs [2] [fold] | binding result [3] |
| --- | --- | --- | --- |
| human mAb WNV-86 (antibody, V domains shown) VH: QVQLVQSGGGLVQPGRSLRLCCAASGFSFDDFAMHWVRQAPGKGLEWVSGINWNSGHIGYADSVKGRFTISRDNAKNSLCLQMNSLRPEDTALYYCAKDRAYYFGSGTSGGAFDVWGQGTLVTVSS VL: DIVMTQSPSSLSASVGDRVTITCRASQNIISYLNWYQQKPGKAPKLLIYDASSLQSGVPSRFSGSGSGTDFTLTISSLQPEDFATYYCQRSFSTPLTFGGGTKVEIK | 88 | 13 | – |
| human mAb WNV-10 (antibody, V domains shown) VH: QVQLVESGGGVVQPGRSLRLSCAASGFTFSSHAMHWVRQAPGKGLEWVAVISYDIINEYYADSVKGRFTISRDNSKNTLYLQMNSLRAEDTAVYYCARDGYFPNSSGEGFFDYWGQGTLVTVSS VL: EIVMTQSPATLSVSPGERATLSCRASQSLSNNLAWYQQKPGQAPRLLIYGASTRATGIPARFSGSGSGTQFTLTISSLQSEDIAVYYCQQFNNWPWTFGQGTKVEIK | – | – | no binding |
| human mAb WNV-62 (antibody, V domains shown) VH: QVQLVESGGGVVQPGRSLRLSCAASGFTFSSYGMHWVRQAPGKGLEWVAVMSYDGSKIYYADSVKGRFTISRDNSKNTLYLQMDSLRAEDTAVYYCAKVGYYDGSRYDLIAEYFQYWGQGTLVTVSS VL: QSVLTQPPSVSGAAGQRVTISCTGSSSNIGAGYDVHWYQQLPGTAPKLLIYGNNNRPSGVPDRFSGSKSDTSASLAITGLRPEDELDYYCQSYDNRLSAYVFGTGTKVTVL | – | – | no binding |
| human mAb WNV-57 (antibody, V domains shown) VH: QVQLVESGGGVVQPGRSLRLACAASGFTLSDFAIHWVRQAPGKGLEWVAIISYDGNIKYYADSVKGRFTISSDNSKNTVYLQMNSLRAEDTAMYYCARDPDVVETAHDAFDIWGQGTLVTVSS VL: DILMTQSPSSLSASVGDRVTITCRASQNIKNYLNWYQQKPGKAPKLLIYAASSLQSLVPSRFSGSGSGTDFTLTISSLQPEDFATYYCQQSYSSFRTFGQGTKVEVK | – | – | no binding |
